Laboratory results as given in PMC2323298.

Biological target: Mouse monoclonal antibody 1F9 (isotype IgG2b with a Kappa light chain)
Experiment: phage ELISA
Conditions: immobilized 1F9; phage dilution 5 (first point of the series); duplicate; parent: est. 0.88; read off a plot

Substance | response (absorbance 450 nm)
3D7 AMA1 domain I expressed on M13 phage F201L | 0.53
3D7 AMA1 domain I expressed on M13 phage F201V | 0.06
3D7 AMA1 domain I expressed on M13 phage N228K | 0.38
3D7 AMA1 domain I expressed on M13 phage D204N | 0.06
3D7 AMA1 domain I expressed on M13 phage H200L | 0.17
